From paper doi:10.1101/751974 (bioRxiv, 2019) come the findings set out here.

For assay [1], the target named is recombinant MCM8-9 complex, purified (human, UniProt Q9NXL9-1;Q9UJA3-1). In words: native gel or EMSA. Background: Mobility shift assays separate free from complexed probe on a gel.
Assay [2] concerns the target MBP-MCM8-9 complex, amylose bead-bound (human, UniProt Q9NXL9-1;Q9UJA3-1). In words: pull-down.

recombinant MCM8-9 complex, purified, sequence (Q9NXL9 whole entry, chain 1 of 2): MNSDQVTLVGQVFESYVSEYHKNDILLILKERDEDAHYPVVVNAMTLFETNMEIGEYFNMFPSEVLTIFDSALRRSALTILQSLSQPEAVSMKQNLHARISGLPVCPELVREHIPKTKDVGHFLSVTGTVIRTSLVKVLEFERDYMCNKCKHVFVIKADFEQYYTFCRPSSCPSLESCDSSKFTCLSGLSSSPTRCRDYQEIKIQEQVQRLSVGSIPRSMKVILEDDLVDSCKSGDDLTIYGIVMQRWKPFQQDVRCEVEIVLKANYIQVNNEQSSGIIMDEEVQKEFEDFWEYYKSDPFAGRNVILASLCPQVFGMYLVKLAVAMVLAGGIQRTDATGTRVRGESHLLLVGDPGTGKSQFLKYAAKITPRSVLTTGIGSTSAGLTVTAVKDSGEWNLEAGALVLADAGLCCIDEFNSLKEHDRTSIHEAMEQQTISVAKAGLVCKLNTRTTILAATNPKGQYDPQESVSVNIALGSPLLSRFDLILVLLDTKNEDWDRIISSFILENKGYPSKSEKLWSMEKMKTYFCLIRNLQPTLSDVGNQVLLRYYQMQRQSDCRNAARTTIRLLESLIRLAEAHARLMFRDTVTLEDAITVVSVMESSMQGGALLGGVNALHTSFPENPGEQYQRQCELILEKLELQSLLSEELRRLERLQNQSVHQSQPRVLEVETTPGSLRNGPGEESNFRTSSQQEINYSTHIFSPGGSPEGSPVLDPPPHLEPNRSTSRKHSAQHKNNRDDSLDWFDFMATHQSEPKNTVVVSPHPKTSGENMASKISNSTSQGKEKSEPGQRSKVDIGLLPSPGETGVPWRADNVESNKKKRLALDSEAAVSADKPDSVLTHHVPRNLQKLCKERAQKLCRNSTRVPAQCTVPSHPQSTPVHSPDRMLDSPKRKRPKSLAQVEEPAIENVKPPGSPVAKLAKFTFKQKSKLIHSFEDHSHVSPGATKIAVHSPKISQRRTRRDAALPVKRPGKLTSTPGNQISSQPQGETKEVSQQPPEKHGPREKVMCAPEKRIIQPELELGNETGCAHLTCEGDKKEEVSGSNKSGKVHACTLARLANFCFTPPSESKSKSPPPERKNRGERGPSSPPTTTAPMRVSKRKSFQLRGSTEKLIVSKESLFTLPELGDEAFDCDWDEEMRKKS
recombinant MCM8-9 complex, purified, sequence (Q9UJA3 whole entry, chain 2 of 2): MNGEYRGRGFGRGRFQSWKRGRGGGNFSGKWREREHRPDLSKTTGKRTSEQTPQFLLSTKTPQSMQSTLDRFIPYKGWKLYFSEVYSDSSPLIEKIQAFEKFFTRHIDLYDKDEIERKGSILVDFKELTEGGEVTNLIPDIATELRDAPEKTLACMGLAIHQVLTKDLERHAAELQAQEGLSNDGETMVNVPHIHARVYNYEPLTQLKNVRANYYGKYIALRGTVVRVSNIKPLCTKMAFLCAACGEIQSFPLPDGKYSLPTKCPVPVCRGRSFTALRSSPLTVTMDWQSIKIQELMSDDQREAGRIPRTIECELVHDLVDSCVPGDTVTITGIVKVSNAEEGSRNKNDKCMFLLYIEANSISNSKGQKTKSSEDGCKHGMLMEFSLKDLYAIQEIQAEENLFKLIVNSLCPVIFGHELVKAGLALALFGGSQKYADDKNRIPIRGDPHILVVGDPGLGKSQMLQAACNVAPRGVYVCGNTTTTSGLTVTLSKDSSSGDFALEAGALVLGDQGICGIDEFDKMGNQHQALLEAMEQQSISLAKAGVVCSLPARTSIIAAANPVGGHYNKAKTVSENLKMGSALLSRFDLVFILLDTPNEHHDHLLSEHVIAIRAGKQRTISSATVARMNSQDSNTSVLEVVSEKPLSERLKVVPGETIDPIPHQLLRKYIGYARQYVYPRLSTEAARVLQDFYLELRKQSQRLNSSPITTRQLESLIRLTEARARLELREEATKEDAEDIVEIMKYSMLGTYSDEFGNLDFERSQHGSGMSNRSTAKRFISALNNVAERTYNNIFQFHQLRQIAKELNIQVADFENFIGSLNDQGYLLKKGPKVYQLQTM
MBP-MCM8-9 complex, amylose bead-bound, sequence (Q9NXL9 whole entry, chain 1 of 2): as the sequence (Q9NXL9 whole entry, chain 1 of 2) above
MBP-MCM8-9 complex, amylose bead-bound, sequence (Q9UJA3 whole entry, chain 2 of 2): as the sequence (Q9UJA3 whole entry, chain 2 of 2) above

B1: MCM8IP-FLAG WT (natural protein)
chain: MACSLQKLFAVEEEFEDEDFLSAVEDAENRFTGSLPVNAGRLRPVSSRPQETVQAQSSRLLLLHPTAPSEALGLPDLDLCLPASSTPSADSRPSCIGAAPLRPVSTSSSWIGNQRRVTVTEVLRETARPQSSALHPLLTFESQQQQVGGFEGPEQDEFDKVLASMELEEPGMELECGVSSEAIPILPAQQREGSVLAKKARVVDLSGSCQKGPVPAIHKAGIMSAQDESLDPVIQCRTPRPPLRPGAVGHLPVPTALTVPTQQLHWEVCPQRSPVQALQPLQAARGTIQSSPQNRFPCQPFQSPSSWLSGKAHLPRPRTPNSSCSTPSRTSSGLFPRIPLQPQAPVSSIGSPVGTPKGPQGALQTPIVTNHLVQLVTAASRTPQQPTHPSTRAKTRRFPGPAGILPHQQSGRSLEDIMVSAPQTPTHGALAKFQTEIVASSQASVEEDFGRGPWLTMKSTLGLDERDPSCFLCTYSIVMVLRKAALKQLPRNKVPNMAVMIKSLTRSTMDASVVFKDPTGEMQGTVHRLLLETCQNELKPGSVLLLKQIGVFSPSLRNHYLNVTPNNLVHIYSPDSGDGSFLKPSQPFPKDSGSFQHDVAAKPEEGFRTAQNLEAEASPEEELPEADDLDGLLSELPEDFFCGTSS
Take B1: the binding result in assay [1] and in assay [2] was “binds” each time.
